# According to US20170266254A1 (AILERON THERAPEUTICS, published 2017):
# Bridges are numbered along the chain shown (N, C = ends). [ ]: non-standard residue; d: D form. R8 = C=CCCCCCC[C@@](C)(N)C(=O)O; S5 = C=CCCC[C@](C)(N)C(=O)O
# T1: C-terminally 6x Histidine-tagged Beta-Catenin (aa 134-668, 59 KD) (UniProt P35222 134-668)
# T1 construct: range 134-668; Armadillo repeat region
# T1 sequence: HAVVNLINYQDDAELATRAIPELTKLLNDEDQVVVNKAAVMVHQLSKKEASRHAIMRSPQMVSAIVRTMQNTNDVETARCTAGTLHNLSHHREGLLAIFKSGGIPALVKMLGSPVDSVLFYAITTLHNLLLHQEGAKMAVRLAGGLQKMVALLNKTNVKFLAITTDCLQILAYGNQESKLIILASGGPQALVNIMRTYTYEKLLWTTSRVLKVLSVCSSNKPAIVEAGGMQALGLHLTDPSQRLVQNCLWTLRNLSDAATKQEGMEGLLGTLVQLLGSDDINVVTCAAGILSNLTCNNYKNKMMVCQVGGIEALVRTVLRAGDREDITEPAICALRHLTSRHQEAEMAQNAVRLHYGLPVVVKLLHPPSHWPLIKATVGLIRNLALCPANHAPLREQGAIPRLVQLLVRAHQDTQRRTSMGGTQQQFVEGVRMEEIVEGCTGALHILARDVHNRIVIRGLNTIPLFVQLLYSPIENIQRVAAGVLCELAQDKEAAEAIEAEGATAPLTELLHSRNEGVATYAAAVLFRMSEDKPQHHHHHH
# Biological target: T1, C-terminally 6x Histidine-tagged …
# Assay: competitive fluorescence polarization, FAM-labelled linear probe as competitor, His-tagged beta-catenin 134-668
# In short: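 FP competition in 25 mM Tris-HCl pH 7.5, 200 mM NaCl, 5 mM CHAPS, 2 mM DTT at room temperature. Competitor peptides at 40–0.7 μM 2× working range, constant DMSO. Probe (benchmark peptide with N-terminal FAM via β-Ala spacer) from 25 nM 10× stock. Read after 3 h in the dark, ex 485/em 528 nm.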
row,Binder,IC50 [µM]
1,"Ac-LGANDELISFKDEGEQEEKSS-NH2 (Linear, not crosslinked) [SP15]",6.08
2,"Ac-LGANDELISF[S5]NQG[S5]QAAKSSNNSSA[S5]RNL[S5]AVKSSLV-NH2 (staple 11-15, 27-31; SMILES CC[C@H](C)[C@H](NC(=O)[C@H](CC(C)C)NC(=O)[C@H](CCC(=O)O)NC(=O)[C@H](CC(=O)O)NC(=O)[C@H](CC(N)=O)NC(=O)[C@H](C)NC(=O)CNC(=O)[C@H](CC(C)C)NC(C)=O)C(=O)N[C@@H](CO)C(=O)N[C@@H](Cc1ccccc1)C(=O)N[C@@]1(C)CCCC=CCCC[C@@](C)(C(=O)N[C@@H](CCC(N)=O)C(=O)N[C@@H](C)C(=O)N[C@@H](C)C(=O)N[C@@H](CCCCN)C(=O)N[C@@H](CO)C(=O)N[C@@H](CO)C(=O)N[C@@H](CC(N)=O)C(=O)N[C@@H](CC(N)=O)C(=O)N[C@@H](CO)C(=O)N[C@@H](CO)C(=O)N[C@@H](C)C(=O)N[C@@]2(C)CCCC=CCCC[C@@](C)(C(=O)N[C@@H](C)C(=O)N[C@H](C(=O)N[C@@H](CCCCN)C(=O)N[C@@H](CO)C(=O)N[C@@H](CO)C(=O)N[C@@H](CC(C)C)C(=O)N[C@H](C(N)=O)C(C)C)C(C)C)NC(=O)[C@H](CC(C)C)NC(=O)[C@H](CC(N)=O)NC(=O)[C@H](CCCNC(=N)N)NC2=O)NC(=O)CNC(=O)[C@H](CCC(N)=O)NC(=O)[C@H](CC(N)=O)NC1=O) [SP60]",≥ 100
3,"Ac-LGANDELISF[S5]NEG[S5]QAEKSSNNSSA[S5]RNL[S5]DVKSSLV-NH2 (staple 11-15, 27-31; SMILES CC[C@H](C)[C@H](NC(=O)[C@H](CC(C)C)NC(=O)[C@H](CCC(=O)O)NC(=O)[C@H](CC(=O)O)NC(=O)[C@H](CC(N)=O)NC(=O)[C@H](C)NC(=O)CNC(=O)[C@H](CC(C)C)NC(C)=O)C(=O)N[C@@H](CO)C(=O)N[C@@H](Cc1ccccc1)C(=O)N[C@@]1(C)CCCC=CCCC[C@@](C)(C(=O)N[C@@H](CCC(N)=O)C(=O)N[C@@H](C)C(=O)N[C@@H](CCC(=O)O)C(=O)N[C@@H](CCCCN)C(=O)N[C@@H](CO)C(=O)N[C@@H](CO)C(=O)N[C@@H](CC(N)=O)C(=O)N[C@@H](CC(N)=O)C(=O)N[C@@H](CO)C(=O)N[C@@H](CO)C(=O)N[C@@H](C)C(=O)N[C@@]2(C)CCCC=CCCC[C@@](C)(C(=O)N[C@@H](CC(=O)O)C(=O)N[C@H](C(=O)N[C@@H](CCCCN)C(=O)N[C@@H](CO)C(=O)N[C@@H](CO)C(=O)N[C@@H](CC(C)C)C(=O)N[C@H](C(N)=O)C(C)C)C(C)C)NC(=O)[C@H](CC(C)C)NC(=O)[C@H](CC(N)=O)NC(=O)[C@H](CCCNC(=N)N)NC2=O)NC(=O)CNC(=O)[C@H](CCC(=O)O)NC(=O)[C@H](CC(N)=O)NC1=O) [SP63]",1.19
4,"Ac-LGANDELISW[S5]DEG[S5]QQEKSSENSSA[S5]RDL[S5]NVKSSLV-NH2 (staple 11-15, 27-31; SMILES CC[C@H](C)[C@H](NC(=O)[C@H](CC(C)C)NC(=O)[C@H](CCC(=O)O)NC(=O)[C@H](CC(=O)O)NC(=O)[C@H](CC(N)=O)NC(=O)[C@H](C)NC(=O)CNC(=O)[C@H](CC(C)C)NC(C)=O)C(=O)N[C@@H](CO)C(=O)N[C@@H](Cc1c[nH]c2ccccc12)C(=O)N[C@@]1(C)CCCC=CCCC[C@@](C)(C(=O)N[C@@H](CCC(N)=O)C(=O)N[C@@H](CCC(N)=O)C(=O)N[C@@H](CCC(=O)O)C(=O)N[C@@H](CCCCN)C(=O)N[C@@H](CO)C(=O)N[C@@H](CO)C(=O)N[C@@H](CCC(=O)O)C(=O)N[C@@H](CC(N)=O)C(=O)N[C@@H](CO)C(=O)N[C@@H](CO)C(=O)N[C@@H](C)C(=O)N[C@@]2(C)CCCC=CCCC[C@@](C)(C(=O)N[C@@H](CC(N)=O)C(=O)N[C@H](C(=O)N[C@@H](CCCCN)C(=O)N[C@@H](CO)C(=O)N[C@@H](CO)C(=O)N[C@@H](CC(C)C)C(=O)N[C@H](C(N)=O)C(C)C)C(C)C)NC(=O)[C@H](CC(C)C)NC(=O)[C@H](CC(=O)O)NC(=O)[C@H](CCCNC(=N)N)NC2=O)NC(=O)CNC(=O)[C@H](CCC(=O)O)NC(=O)[C@H](CC(=O)O)NC1=O) [SP61]",1
5,"LGANDELISFANEGAQEEKSSNNSSAARDLADVKSSLV (not fully specified; N-terminal acetyl; C-terminal amide; $ = (S)-alpha-(2'-pentenyl)alanine at positions 11 and 15 (first crosslink) and 27 and 31 (second crosslink), each pair joined by an all-carbon crosslinker with one double bond) [SP62]",0.07
6,"LGANDELISFANEGAQEEKSSNNSSAARNLADVKSSLV (not fully specified; N-terminal acetyl; C-terminal amide; $ = (S)-alpha-(2'-pentenyl)alanine at positions 11 and 15 (first crosslink) and 27 and 31 (second crosslink), each pair joined by an all-carbon crosslinker with one double bond) [SP64]",0.541
7,Ac-LGANDELISF[S5]DEG[S5]QEEKSSN-NH2 (staple 11-15; SMILES CC[C@H](C)[C@H](NC(=O)[C@H](CC(C)C)NC(=O)[C@H](CCC(=O)O)NC(=O)[C@H](CC(=O)O)NC(=O)[C@H](CC(N)=O)NC(=O)[C@H](C)NC(=O)CNC(=O)[C@H](CC(C)C)NC(C)=O)C(=O)N[C@@H](CO)C(=O)N[C@@H](Cc1ccccc1)C(=O)N[C@@]1(C)CCCC=CCCC[C@@](C)(C(=O)N[C@@H](CCC(N)=O)C(=O)N[C@@H](CCC(=O)O)C(=O)N[C@@H](CCC(=O)O)C(=O)N[C@@H](CCCCN)C(=O)N[C@@H](CO)C(=O)N[C@@H](CO)C(=O)N[C@@H](CC(N)=O)C(N)=O)NC(=O)CNC(=O)[C@H](CCC(=O)O)NC(=O)[C@H](CC(=O)O)NC1=O) [SP16],≥ 100
8,Ac-LGANDELISF[R8]DEGEQE[S5]KSSN-NH2 (staple 11-18; SMILES CC[C@H](C)[C@H](NC(=O)[C@H](CC(C)C)NC(=O)[C@H](CCC(=O)O)NC(=O)[C@H](CC(=O)O)NC(=O)[C@H](CC(N)=O)NC(=O)[C@H](C)NC(=O)CNC(=O)[C@H](CC(C)C)NC(C)=O)C(=O)N[C@@H](CO)C(=O)N[C@@H](Cc1ccccc1)C(=O)N[C@]1(C)CCCCCCC=CCCC[C@@](C)(C(=O)N[C@@H](CCCCN)C(=O)N[C@@H](CO)C(=O)N[C@@H](CO)C(=O)N[C@@H](CC(N)=O)C(N)=O)NC(=O)[C@H](CCC(=O)O)NC(=O)[C@H](CCC(N)=O)NC(=O)[C@H](CCC(=O)O)NC(=O)CNC(=O)[C@H](CCC(=O)O)NC(=O)[C@H](CC(=O)O)NC1=O) [SP20],≥ 100
9,Ac-LGANDELISFK[S5]EGE[S5]EEKSSN-NH2 (staple 12-16; SMILES CC[C@H](C)[C@H](NC(=O)[C@H](CC(C)C)NC(=O)[C@H](CCC(=O)O)NC(=O)[C@H](CC(=O)O)NC(=O)[C@H](CC(N)=O)NC(=O)[C@H](C)NC(=O)CNC(=O)[C@H](CC(C)C)NC(C)=O)C(=O)N[C@@H](CO)C(=O)N[C@@H](Cc1ccccc1)C(=O)N[C@@H](CCCCN)C(=O)N[C@@]1(C)CCCC=CCCC[C@@](C)(C(=O)N[C@@H](CCC(=O)O)C(=O)N[C@@H](CCC(=O)O)C(=O)N[C@@H](CCCCN)C(=O)N[C@@H](CO)C(=O)N[C@@H](CO)C(=O)N[C@@H](CC(N)=O)C(N)=O)NC(=O)[C@H](CCC(=O)O)NC(=O)CNC(=O)[C@H](CCC(=O)O)NC1=O) [SP17],52.9
10,Ac-LGANDELISFKDEG[S5]QEE[S5]SSN-NH2 (staple 15-19; SMILES CC[C@H](C)[C@H](NC(=O)[C@H](CC(C)C)NC(=O)[C@H](CCC(=O)O)NC(=O)[C@H](CC(=O)O)NC(=O)[C@H](CC(N)=O)NC(=O)[C@H](C)NC(=O)CNC(=O)[C@H](CC(C)C)NC(C)=O)C(=O)N[C@@H](CO)C(=O)N[C@@H](Cc1ccccc1)C(=O)N[C@@H](CCCCN)C(=O)N[C@@H](CC(=O)O)C(=O)N[C@@H](CCC(=O)O)C(=O)NCC(=O)N[C@@]1(C)CCCC=CCCC[C@@](C)(C(=O)N[C@@H](CO)C(=O)N[C@@H](CO)C(=O)N[C@@H](CC(N)=O)C(N)=O)NC(=O)[C@H](CCC(=O)O)NC(=O)[C@H](CCC(=O)O)NC(=O)[C@H](CCC(N)=O)NC1=O) [SP18],60.1
11,Ac-LGANDELISFKDEGE[S5]EEK[S5]SN-NH2 (staple 16-20; SMILES CC[C@H](C)[C@H](NC(=O)[C@H](CC(C)C)NC(=O)[C@H](CCC(=O)O)NC(=O)[C@H](CC(=O)O)NC(=O)[C@H](CC(N)=O)NC(=O)[C@H](C)NC(=O)CNC(=O)[C@H](CC(C)C)NC(C)=O)C(=O)N[C@@H](CO)C(=O)N[C@@H](Cc1ccccc1)C(=O)N[C@@H](CCCCN)C(=O)N[C@@H](CC(=O)O)C(=O)N[C@@H](CCC(=O)O)C(=O)NCC(=O)N[C@@H](CCC(=O)O)C(=O)N[C@@]1(C)CCCC=CCCC[C@@](C)(C(=O)N[C@@H](CO)C(=O)N[C@@H](CC(N)=O)C(N)=O)NC(=O)[C@H](CCCCN)NC(=O)[C@H](CCC(=O)O)NC(=O)[C@H](CCC(=O)O)NC1=O) [SP19],≥ 100
